Reference: patent US6491893B1, “Compounds for targeting and imaging infection and inflammation” (Biostream, Inc., priority 1999, dated 2002)
Like-named read-outs stand apart in the source and are kept apart here.

How the values were obtained:
[1] = cited from earlier work
[2] = cited from earlier work; remark: listed apart in the source
[3] = tested on: intramuscular bacterial infections (E. coli, left posterior thigh); test: Gamma camera imaging, T/B ratios from ROI analysis of scintigrams (Example 1, Table 1); format: in vivo, New Zealand white rabbits; conditions: for average Target:Background (T/B) ratio, gamma camera images: Average of 2 rabbits
Description: (§1) In order to label G-CSF with radioindium (^111In), G-CSF was conjugated with diethylenetriaminepentacetic acid (DTPA) via the active ester. DTPA conjugated G-CSF was labeled with In-111 and injected into rabbits bearing intramuscular bacterial infections. Two New Zealand white rabbits weighing approximately 2-3 kg were injected in their left posterior thigh with a 0.5 ml suspension of ˜10^9 E. coli for infection imaging and biodistribution studies. Animals were injected with In-111-DTPA-G-CSF at 24 hr after bacterial injection, when the animals were judged to have moderate infections by palpation.
[…], the animals were anesthetized with ketamine/xylazine (15.0 and 1.5 mg/kg) and scintigrams were acquired using a large field of view gamma camera equipped with a parallel hole medium energy collimator. Regions-of-interest (ROI's) were drawn over the area of infection and the contralateral normal muscle and target-to-background (T/B) ratios were calculated. After acquiring the final images, the animals were sacrificed with an over dose of sodium pentobarbital and biodistribution was determined. For comparison with the imaging results, infected to normal muscle and pus to normal muscle ratios were calculated from biodistribution data.

[4] = tested on: intramuscular bacterial infections (E. coli, left posterior thigh); format: in vivo, New Zealand white rabbits; conditions: from biodistribution data
Description: as §1
At 4 and 18 hours following injection of the In-111-DTPA-G-CSF, the animals were anesthetized with ketamine/xylazine (15.0 and 1.5 mg/kg) and scintigrams were acquired using a large field of view gamma camera equipped with a parallel hole medium energy collimator. Regions-of-interest (ROI's) were drawn over the area of infection and the contralateral normal muscle and target-to-background (T/B) ratios were calculated. After acquiring the final images, the animals were sacrificed with an over dose of sodium pentobarbital and biodistribution was determined. For comparison with the imaging results, infected to normal muscle and pus to normal muscle ratios were calculated from biodistribution data.

[5] = after intravenous administration over 30 min
[6] = Average, 18 Hours Post Injection
[7] = Rabbit #1, 18 Hours Post Injection
[8] = Rabbit #2, 18 Hours Post Injection

For “GM-CSF: colony stimulating factor promoting growth of progenitors of several myeloid lines”, the “distribution half-life (T sub ½ alpha)” value [1, 5] is given as 5 to 15 min, the “elimination phase (T sub ½ Beta)” value [1, 5] is given as 1 to 9 h and the “time to peak serum concentration” value ([1]; after single subcutaneous bolus injections) is given as no more than 4 h. The elimination half-life ([1]; single subcutaneous bolus injections, doses of 10 mμ g/kg) was 174 min, the serum concentration achieved ([1]; subcutaneous doses of 5-10 mμ g/kg, for 8-24 h) was “>= 10 ng/mL” and the “time serum concentrations >=10 ng/mL are achieved” value ([1]; subcutaneous doses of 5-10 mμ g/kg) was 8 to 24 h.

B1: G-CSF: full length protein, polypeptide or peptide corresponding to natural G-CSF that binds to a CSF receptor (protein, UniProt P09919 31-207, looked up)
Granulocyte …: TPLGPASSLPQSFLLKCLEQVRKIQGDGAALQEKLVSECATYKLCHPEELVLLGHSLGIPWAPLSSCPSQALQLAGCLSQLHSGLFLYQGLLQALEGISPELGPTLDTLQLDVADFATTIWQQMEELGMAPALQPTQGAMPAFASAFQRRAGGVLVASHLQSFLEVSYRVLRHLAQP
For B1, the serum concentration maintained ([2]; after doses of 5-10 μg/kg, for up to 16 h) is listed as greater than 10 ng/mL, the “time serum concentrations of >10 ng/mL are maintained” value ([2]; after doses of 5-10 mμ g/kg) is listed as “up to 16 h” and the “time C sub max values are maintained” value ([2]; after short (20-30 min) intravenous infusions) is listed as 30 to 60 min. For the same molecule, the estimated terminal half-life ([2]; after short intravenous infusions, doses up to 60 μg/kg) was 45 to 432 min, the “serum concentration by 24 h” value ([2]; after single subcutaneous injections, by 24 h) was less than 10 % C sub max and the “time to peak serum concentration” value ([2]; after single subcutaneous injections) was 4 to 6 h.

B2: In-111-DTPA-GCSF: G-CSF conjugated with diethylenetriaminepentacetic acid (DTPA) via the active ester and labeled with In-111 (conjugate, UniProt P09919 31-207, looked up)
Granulocyte …: B1 Granulocyte …
modifications: DTPA conjugate labeled with In-111
With B2 the “T/B ratio calculated from ROI analysis of scintigrams” value ([3]; 3 hour after injection) was 3.567, the “T/B ratio calculated from ROI analysis of scintigrams” value ([3]; 17 hours after injection) was 11.87 and the “average Target:Background (T/B) ratio, gamma camera images” value ([3]; 4 hours post injection) was 3.567. The “average Target:Background (T/B) ratio, gamma camera images” value ([3]; 18 hours post injection) was 11.87, the “Infected to normal tissue ratio from gamma camera images” value (“Infected to normal tissue ratio” for short) ([3]; Rabbit #1, 4 hours post injection) was 3.359 and the “Infected to normal tissue ratio” value ([3]; Rabbit #1, 18 hours post injection) was 8.643. The “Infected to normal tissue ratio” value ([3]; Rabbit #2, 4 hours post injection) was 3.775, the “Infected to normal tissue ratio” value ([3]; Rabbit #2, 18 hours post injection) was 15.10 and the “localization at sites of infection (in words)” value ([3]; rabbits with E. coli infection) was “effective agent for localizing sites of infection”. The Infected/normal muscle ratio [4, 6] was 26.24, the Pus/normal muscle ratio [4, 6] was 59.16 and the “Infected/normal muscle #1 ratio” value [4, 7] was 36.89. For the same molecule, the “Infected/normal muscle #2 ratio” value [4, 7] was 21.54, the “Infected/normal muscle #3 ratio” value [4, 7] was 20.11 and the “Infected/normal muscle #4 ratio” value [4, 7] was 20.95. For the same molecule, the “Infected/normal muscle #5 ratio” value [4, 7] was 15.63, the Pus/normal muscle ratio [4, 7] was 23.56 and the “Infected/normal muscle #1 ratio” value [4, 8] was 39.21. The “Infected/normal muscle #2 ratio” value [4, 8] was 26.17, the “Infected/normal muscle #3 ratio” value [4, 8] was 37.03 and the “Infected/normal muscle #4 ratio” value [4, 8] was 28.44. For the same molecule, the “Infected/normal muscle #5 ratio” value [4, 8] was 16.42 and the Pus/normal muscle ratio [4, 8] was 94.76.
